We go through one substance from US20250121043A1.

What all share (assay): cell-based or functional assay
The target of one assay is 17.4α/8.3β TCR (8.3-TCR).
Assay [1] concerns the target Vα17.5+ TCR (CDR3-invariant Vα17.5-Jα42 chain with a single TCRβ chain) on TCRαβ-transfectants.
In assay [2] the target is 17.6α/8.3β TCR (low affinity IGRP206-214-reactive Vα17.6/8.3β TCR).

Regarding “NRP-V7/K^d-coated nanoparticles (from UniProt P01902 22-305) (peptide-MHC)”, the percentage of cells that had formed CD8 caps, 5 min of incubation with beads is less than 20% in the assay with 17.4α/8.3β TCR (8.3-TCR), more than 60% in assay [1] and less than 20% in assay [2]. The percentage of cells that had formed CD8 caps, 30 min of incubation with beads in assay [2] was less than 20%.
